Laboratory results taken from doi:10.1101/2025.09.29.679124 (bioRxiv, 2025).
Values belong to the binder of their own block, whether it stands above or below them.

Columns and labels:
[1] = molecular target: T1, MBP-His-D53-D2 (718-1131) (rice (Oryza sativa), UniProt Q2RBP2 718-1131); assay: pull-down
T1 sequence (looked up): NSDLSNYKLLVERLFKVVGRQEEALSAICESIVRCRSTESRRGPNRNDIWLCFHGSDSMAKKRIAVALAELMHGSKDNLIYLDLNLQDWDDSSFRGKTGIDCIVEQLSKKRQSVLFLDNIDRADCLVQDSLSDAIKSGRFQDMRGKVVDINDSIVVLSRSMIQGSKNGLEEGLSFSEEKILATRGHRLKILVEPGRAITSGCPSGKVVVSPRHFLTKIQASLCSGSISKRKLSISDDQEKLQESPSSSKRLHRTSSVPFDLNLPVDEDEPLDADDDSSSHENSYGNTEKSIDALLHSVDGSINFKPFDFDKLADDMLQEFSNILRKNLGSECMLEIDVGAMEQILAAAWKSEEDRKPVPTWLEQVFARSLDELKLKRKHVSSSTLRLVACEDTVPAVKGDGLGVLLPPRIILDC

[2] = molecular target: T2, MBP-tagged D3 (2-720) co-expressed with untagged ASK1 (rice (Oryza sativa) | Arabidopsis, UniProt Q5VMP0 2-720; Q39255 1-160); assay: pull-down
T2 sequence (looked up) 1: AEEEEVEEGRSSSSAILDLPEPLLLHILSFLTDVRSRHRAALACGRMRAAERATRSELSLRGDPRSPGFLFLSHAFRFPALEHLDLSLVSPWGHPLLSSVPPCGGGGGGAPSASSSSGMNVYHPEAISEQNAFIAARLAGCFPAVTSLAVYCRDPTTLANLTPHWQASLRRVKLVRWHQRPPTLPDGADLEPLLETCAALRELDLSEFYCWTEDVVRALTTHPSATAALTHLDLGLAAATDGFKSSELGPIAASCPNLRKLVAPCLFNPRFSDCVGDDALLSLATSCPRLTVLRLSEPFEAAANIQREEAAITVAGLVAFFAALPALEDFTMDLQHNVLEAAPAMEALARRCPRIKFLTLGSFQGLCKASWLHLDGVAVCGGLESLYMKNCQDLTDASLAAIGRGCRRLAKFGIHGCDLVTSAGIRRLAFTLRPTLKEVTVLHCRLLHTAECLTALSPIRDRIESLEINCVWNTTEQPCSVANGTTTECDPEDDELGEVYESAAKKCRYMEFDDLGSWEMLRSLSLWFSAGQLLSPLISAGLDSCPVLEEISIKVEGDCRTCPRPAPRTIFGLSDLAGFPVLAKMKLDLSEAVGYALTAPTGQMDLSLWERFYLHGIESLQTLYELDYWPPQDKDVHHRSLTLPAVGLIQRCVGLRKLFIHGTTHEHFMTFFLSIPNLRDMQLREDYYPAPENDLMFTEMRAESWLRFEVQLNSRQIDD
T2 sequence (looked up) 2: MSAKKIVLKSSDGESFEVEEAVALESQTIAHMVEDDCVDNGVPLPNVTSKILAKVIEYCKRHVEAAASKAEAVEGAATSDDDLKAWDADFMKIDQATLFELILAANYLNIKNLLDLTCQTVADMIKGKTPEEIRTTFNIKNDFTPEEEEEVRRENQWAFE

- binding result [1]: binds
B1: GST-D14 (50-318) (receptor, rice (Oryza sativa), UniProt Q10QA5 50-318, looked up)
chain: APSGAKLLQILNVRVVGSGERVVVLSHGFGTDQSAWSRVLPYLTRDHRVVLYDLVCAGSVNPDHFDFRRYDNLDAYVDDLLAILDALRIPRCAFVGHSVSAMIGILASIRRPDLFAKLVLIGASPRFLNDSDYHGGFELEEIQQVFDAMGANYSAWATGYAPLAVGADVPAAVQEFSRTLFNMRPDISLHVCQTVFKTDLRGVLGMVRAPCVVVQTTRDVSVPASVAAYLKAHLGGRTTVEFLQTEGHLPHLSAPSLLAQVLRRALARY

- binding result [2]: binds
B2: Glutathione-S-transferase (GST)-tagged D14L (receptor, rice (Oryza sativa), UniProt Q10J20 1-271, looked up)
chain: MGIVEEAHNLRVVGEGKRGVIVLAHGFGTDQSVWKHLVPHLVADYRVVLFDTMGAGPTNPDYFDFSRYATLEGYALDLLAILQELRVASCIYVGHSVSAVIGAIASISRPDLFSKLVLLSASPRYLNDVDYYGGFEQEDLDELFEAMGSNYKAWCSGFAPLCVGGDMESVAVQEFSRTLFNIRPDIALSVAQTIFQSDVRSLLPLVTVPCHIVQSTKDLAVPVVVSEYLHKHLGGDSIVEVMPSEGHLPQLSSPDIVIPVLLRHIQHDIAV
